The Immune Epitope Database (IEDB)

The sequences below were run against HLA-A*02:01 (assay: IEDB peptide-MHC binding, purified MHC/competitive/radioactivity; ≥ and ≤ were set here for values at or beyond the usual limits of such assays). Conditions: source organism: Bordetella pertussis.

Sequence	IC50
GKLPKPVTV	69.4 µM

Each sequence was assayed against HLA-B*07:02 in the same assay as above. Conditions: source organism: Bordetella pertussis.

Sequence	IC50
FVRDGQSVI	5.56 µM
KDYRDKDGG	69.6 µM
KPAPQPGPQ	31.7 µM
PPRPVAAQV	17.8 µM

These sequences were tested against HLA-B*35:01 in the same assay as above. Conditions: source organism: Bordetella pertussis.

Sequence	IC50
FAILSSTTE	69.9 µM
KPAPTAPPM	0.019 µM
LPVRGVALV	69.9 µM

Each sequence was assayed against HLA-B*44:03 in the same assay as above. Conditions: source organism: Bordetella pertussis.

Sequence	IC50
AEHGEVSIQ	2.88 µM
AEVKVGYRA	2.36 µM
KEAATIVAA	15 µM
SESHNFHAS	32.7 µM

These sequences were tested against HLA-B*53:01 in the same assay as above. Conditions: source organism: Bordetella pertussis.

Sequence	IC50
DATFETYAL	4.9 µM
EPQAELAVF	4.52 µM
ESYSESHNF	6.27 µM
FAILSSTTE	47.1 µM
GAVPGGAVP	69.9 µM
GGVPGGAVP	26.7 µM
LPVRGVALV	≥ 78.2 µM

The sequences below were run against HLA-B*57:01 in the same assay as above. Conditions: source organism: Bordetella pertussis.

Sequence	IC50
VALASQARW	0.188 µM
YLRQITPGW	1.54 µM
